Test results: paper PMC1933424

What was measured:
[1] = Western blot of yeast culture supernatant, 30°C; conditions: glycan lost; control: wild-type full-length GA
[2] = extracellular GA activity of yeast cultures, 30°C; conditions: glycan lost; control: wild-type full-length GA

| Protein | expression_or_secretion [1] | enzymatic_activity [2] |
| --- | --- | --- |
| Rhizopus oryzae glucoamylase (RoGA): Asn167 to Gln (protein) parent chain: MQLFNLPLKVSFFLVLSYFSLLVSAASIPSSASVQLDSYNYDGSTFSGKIYVKNIAYSKKVTVIYADGSDNWNNNGNTIAASYSAPISGSNYEYWTFSASINGIKEFYIKYEVSGKTYYDNNNSANYQVSTSKPTTTTATATTTTAPSTSTTTPPSRSEPATFPTGNSTISSWIKKQEGISRFAMLRNINPPGSATGFIAASLSTAGPDYYYAWTRDAALTSNVIVYEYNTTLSGNKTILNVLKDYVTFSVKTQSTSTVCNCLGEPKFNPDASGYTGAWGRPQNDGPAERATTFILFADSYLTQTKDASYVTGTLKPAIFKDLDYVVNVWSNGCFDLWEEVNGVHFYTLMVMRKGLLLGADFAKRNGDSTRASTYSSTASTIANKISSFWVSSNNWIQVSQSVTGGVSKKGLDVSTLLAANLGSVDDGFFTPGSEKILATAVAVEDSFASLYPINKNLPSYLGNSIGRYPEDTYNGNGNSQGNSWFLAVTGYAELYYRAIKEWIGNGGVTVSSISLPFFKKFDSSATSGKKYTVGTSDFNNLAQNIALAADRFLSTVQLHAHNNGSLAEEFDRTTGLSTGARDLTWSHASLITASYAKAGAPAA | decreases | – |
| Rhizopus oryzae glucoamylase (RoGA): T165A (protein) parent chain: MQLFNLPLKVSFFLVLSYFSLLVSAASIPSSASVQLDSYNYDGSTFSGKIYVKNIAYSKKVTVIYADGSDNWNNNGNTIAASYSAPISGSNYEYWTFSASINGIKEFYIKYEVSGKTYYDNNNSANYQVSTSKPTTTTATATTTTAPSTSTTTPPSRSEPATFPTGNSTISSWIKKQEGISRFAMLRNINPPGSATGFIAASLSTAGPDYYYAWTRDAALTSNVIVYEYNTTLSGNKTILNVLKDYVTFSVKTQSTSTVCNCLGEPKFNPDASGYTGAWGRPQNDGPAERATTFILFADSYLTQTKDASYVTGTLKPAIFKDLDYVVNVWSNGCFDLWEEVNGVHFYTLMVMRKGLLLGADFAKRNGDSTRASTYSSTASTIANKISSFWVSSNNWIQVSQSVTGGVSKKGLDVSTLLAANLGSVDDGFFTPGSEKILATAVAVEDSFASLYPINKNLPSYLGNSIGRYPEDTYNGNGNSQGNSWFLAVTGYAELYYRAIKEWIGNGGVTVSSISLPFFKKFDSSATSGKKYTVGTSDFNNLAQNIALAADRFLSTVQLHAHNNGSLAEEFDRTTGLSTGARDLTWSHASLITASYAKAGAPAA | no change | no change |
